# In patent publication US10213515B2, “Glycopeptide for contrast agent targeting cancer cells and contrast agent kit containing the same” (priority 2015, dated 2019):
# Test system: HT-29 cells
# Assay: Cytotoxicity depending on the concentration of RR-S-Ac3ManNAz
# Format: cell-based, human
# Conditions: FIG. 4B
structure (smiles),measurement,value
CC(=O)N[C@@H](CCCCN)C(=O)NCC(=O)N[C@@H](CCCNC(=N)N)C(=O)N[C@@H](CCCNC(=N)N)C(=O)Nc1ccc(COC(=O)OC[C@H]2OC(OC(C)=O)[C@@H](NC(=O)CN=[N+]=[N-])[C@@H](OC(C)=O)[C@@H]2OC(C)=O)cc1 (stereo partly shown) [RR-S-Ac3ManNAz],concentration up to which cytotoxicity was not observed,up to 20 μM
